± gives the uncertainty stated by the source.
B1: Cyclin-F, residues 28 to 80; numbered along this chain, P41002 (parent)
chain: RNLTILSLPEDVLFHILKWLSVEDILAVRAVHSQLKDLVDNHASVWACASFQE

Variants of: B1
Test: abundance fitness (aPCA) (normalised: wild type 0, dead -1); higher = more abundant; growth selection in yeast, the domain comes from the species named
Conditions: Homo sapiens

Abundance fitness, by site and new letter:
D37: P -1.02 ± 0.2, V -0.049 ± 0.1, G -0.044 ± 0.085, L 0.03 ± 0.089, K 0.356 ± 0.15, F -0.222 ± 0.16, S 0.006 ± 0.098, M 0.158 ± 0.14, Q 0.075 ± 0.17, N -0.017 ± 0.13, A 0.027 ± 0.098, T 0.076 ± 0.12, C 0.012 ± 0.13, W -0.42 ± 0.13, H -0.086 ± 0.17, I 0.228 ± 0.34
Q34: T 0.004 ± 0.071, N -0.417 ± 0.13, E -0.455 ± 0.078, A -0.111 ± 0.062, V -0.126 ± 0.061, I -0.129 ± 0.088, C -0.248 ± 0.086, M -0.156 ± 0.075, W -0.753 ± 0.1, S -0.06 ± 0.065, P -0.807 ± 0.11, H -0.121 ± 0.1, L -0.368 ± 0.064, R 0.109 ± 0.062, Y -0.374 ± 0.12, D -0.446 ± 0.087, F -0.4 ± 0.1
V31: A -0.046 ± 0.089, C -0.056 ± 0.1, R -0.754 ± 0.14, E -1.16 ± 0.24, M -0.681 ± 0.16, N -0.586 ± 0.31, Y -0.964 ± 0.23, H -0.976 ± 0.22, D -0.729 ± 0.2, K -0.809 ± 0.24, T 0.124 ± 0.11, W -0.769 ± 0.19, F -0.747 ± 0.17, I -0.594 ± 0.11, G -0.672 ± 0.11, Q -0.532 ± 0.15, S 0.191 ± 0.09
K36: Y -0.883 ± 0.23, M -0.932 ± 0.2, H -0.445 ± 0.15, R 0.054 ± 0.084, W -0.626 ± 0.22, P -0.573 ± 0.16, I -0.986 ± 0.23, N -0.779 ± 0.23, F -0.811 ± 0.21, T -0.723 ± 0.16, Q -0.609 ± 0.23, V -0.785 ± 0.12, A -0.561 ± 0.13, C -0.915 ± 0.18, G -0.891 ± 0.14, D -0.886 ± 0.28, E -0.771 ± 0.21, L -0.625 ± 0.12, S -0.788 ± 0.11
V39: S -0.445 ± 0.12, F -0.819 ± 0.22, I -0.074 ± 0.098, E -0.819 ± 0.17, P -0.931 ± 0.19, C -0.245 ± 0.12, K -0.767 ± 0.15, M -0.781 ± 0.27, R -0.793 ± 0.099, A -0.341 ± 0.11, L -0.287 ± 0.1, T -0.787 ± 0.19, Q -0.362 ± 0.3, D -0.655 ± 0.21, W -0.648 ± 0.15
L38: S -0.302 ± 0.1, V 0.273 ± 0.088, P -0.935 ± 0.27, I 0.244 ± 0.17, W -0.214 ± 0.12, M -0.008 ± 0.13, G -0.561 ± 0.095, D -0.758 ± 0.18, A -0.075 ± 0.094, Y -0.151 ± 0.16, N -0.906 ± 0.26, C 0.17 ± 0.099, H -0.12 ± 0.2, E -0.872 ± 0.24, F 0.07 ± 0.13, Q -0.682 ± 0.2, R -0.633 ± 0.11, T -0.133 ± 0.15, K -0.34 ± 0.17
A30: W -0.836 ± 0.12, V -0.125 ± 0.098
D40: P -0.791 ± 0.2, F -0.828 ± 0.22, H -0.552 ± 0.19, A -0.917 ± 0.13, K -0.805 ± 0.27, G -0.77 ± 0.1, Q -0.49 ± 0.2, M -0.884 ± 0.28, T -0.444 ± 0.15, S -0.432 ± 0.12, C -0.912 ± 0.22, R -0.749 ± 0.11, E -0.684 ± 0.17, N -0.664 ± 0.15, L -0.919 ± 0.12
L35: F -0.172 ± 0.16, E -0.745 ± 0.14, K -0.805 ± 0.2, W -0.567 ± 0.13, P -0.842 ± 0.18, C -0.643 ± 0.22, Y -0.687 ± 0.41, S -0.786 ± 0.14, A -0.772 ± 0.12, D -0.528 ± 0.29, I -0.158 ± 0.22, H -0.831 ± 0.34, V -0.768 ± 0.11, R -0.884 ± 0.14, Q -0.861 ± 0.18
S33: Q -0.672 ± 0.11, H -0.443 ± 0.11, V -0.544 ± 0.066, Y -0.791 ± 0.12, N -0.67 ± 0.14, I -0.855 ± 0.14, A -0.648 ± 0.072, C -0.828 ± 0.15, R -0.158 ± 0.061, T -0.247 ± 0.08, G -0.554 ± 0.064, K -0.294 ± 0.091, W -0.48 ± 0.078, M -0.72 ± 0.089, F -0.801 ± 0.11, E -0.675 ± 0.081
H32: M -1.09 ± 0.3, P -0.737 ± 0.15, N 0.262 ± 0.1, V -0.532 ± 0.1, I -0.825 ± 0.23, A -0.438 ± 0.1, Y -0.895 ± 0.13, C 0.209 ± 0.13, S 0.096 ± 0.081, K -0.912 ± 0.2, R -0.787 ± 0.11, E -0.653 ± 0.14, W -0.937 ± 0.19, G -0.591 ± 0.11, L -0.757 ± 0.13, T -0.503 ± 0.14
